Columns and labels:
[1] = molecular target: T1, ribosomal protein L10 from Thermus thermophilus (Thermus thermophilus, UniProt Q8VVE3 1-173); test: SEC
T1 sequence (looked up): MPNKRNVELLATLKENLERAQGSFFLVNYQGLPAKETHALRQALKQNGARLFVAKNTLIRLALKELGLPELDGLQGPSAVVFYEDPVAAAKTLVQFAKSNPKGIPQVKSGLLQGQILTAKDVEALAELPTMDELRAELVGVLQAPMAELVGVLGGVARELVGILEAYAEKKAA

[2] = molecular target: T2, ribosomal protein L10 from Methanococcus jannaschii (Methanococcus jannaschii, UniProt P54049 1-338); test: native gel or EMSA
T2 sequence (looked up): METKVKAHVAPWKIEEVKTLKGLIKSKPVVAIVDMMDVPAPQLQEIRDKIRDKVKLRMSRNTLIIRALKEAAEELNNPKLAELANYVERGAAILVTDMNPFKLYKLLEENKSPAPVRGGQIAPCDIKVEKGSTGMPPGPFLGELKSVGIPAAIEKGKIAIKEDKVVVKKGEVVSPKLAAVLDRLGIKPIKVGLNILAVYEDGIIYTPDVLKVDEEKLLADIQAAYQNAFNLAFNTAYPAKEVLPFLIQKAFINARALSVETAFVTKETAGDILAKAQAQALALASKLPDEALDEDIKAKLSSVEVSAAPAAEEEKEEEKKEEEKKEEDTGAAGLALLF

[3] = molecular target: T3, ribosomal protein L10 from Methanococcus thermolithotrophicus (Methanococcus thermolithotrophicus, UniProt O52705 1-338); test: SEC
T3 sequence (looked up): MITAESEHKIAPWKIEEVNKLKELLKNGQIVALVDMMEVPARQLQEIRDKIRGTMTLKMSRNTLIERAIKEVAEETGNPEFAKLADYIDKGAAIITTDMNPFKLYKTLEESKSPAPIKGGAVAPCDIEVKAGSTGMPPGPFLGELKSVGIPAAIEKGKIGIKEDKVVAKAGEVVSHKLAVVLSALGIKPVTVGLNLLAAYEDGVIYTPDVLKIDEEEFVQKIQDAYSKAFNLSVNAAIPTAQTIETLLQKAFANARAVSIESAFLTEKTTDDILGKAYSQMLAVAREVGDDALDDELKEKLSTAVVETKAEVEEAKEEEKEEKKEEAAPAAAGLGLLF

[4] = molecular target: T3, ribosomal protein L10 from …; test: native gel or EMSA
[5] = molecular target: T4, ribosomal protein L10 from Sulfolobus solfataricus (Sulfolobus solfataricus, UniProt P96039 1-338); test: SEC
T4 sequence (looked up): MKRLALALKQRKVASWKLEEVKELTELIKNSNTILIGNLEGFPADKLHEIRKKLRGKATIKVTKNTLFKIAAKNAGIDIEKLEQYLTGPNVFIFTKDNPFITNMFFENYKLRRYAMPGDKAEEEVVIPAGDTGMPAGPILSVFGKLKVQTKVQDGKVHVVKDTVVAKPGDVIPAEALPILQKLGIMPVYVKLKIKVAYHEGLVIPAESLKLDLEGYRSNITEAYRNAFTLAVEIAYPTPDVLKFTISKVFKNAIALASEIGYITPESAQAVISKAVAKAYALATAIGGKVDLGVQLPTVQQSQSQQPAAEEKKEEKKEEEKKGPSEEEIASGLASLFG

[6] = molecular target: T4, ribosomal protein L10 from Sulfolobus …; test: native gel or EMSA
[7] = molecular target: T5, ribosomal protein L10 from Methanococcus vannielii (Methanococcus vannielii, UniProt P15826 1-336); test: SEC
T5 sequence (looked up): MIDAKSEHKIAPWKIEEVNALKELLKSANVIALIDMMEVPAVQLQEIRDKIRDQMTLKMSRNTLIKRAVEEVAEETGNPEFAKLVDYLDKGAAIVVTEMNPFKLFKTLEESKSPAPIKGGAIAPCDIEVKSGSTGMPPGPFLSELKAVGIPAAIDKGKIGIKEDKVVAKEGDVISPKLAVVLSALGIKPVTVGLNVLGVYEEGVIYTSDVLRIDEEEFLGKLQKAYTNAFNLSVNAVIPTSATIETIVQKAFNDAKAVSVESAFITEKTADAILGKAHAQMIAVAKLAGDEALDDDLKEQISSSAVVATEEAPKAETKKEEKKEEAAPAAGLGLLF

[8] = molecular target: T5, ribosomal protein L10 from …; test: native gel or EMSA

B1: ribosomal protein L12 from Thermus thermophilus (natural protein, UniProt Q8VVE2 1-125, looked up)
chain: MALDIERIKEELSQATVLELKQLIDALKEAWGVTAAAPVAVAAAPAAGAAAAPAEEKTEFDVILKEAGAKKLEVIKELRAITGLGLKEAKDLAEKGGPVKEGVSKQEAEEIKKKLEAVGAVVELK
- stoichiometry N [1]: 6 L12 per L10

B2: ribosomal protein L12 from Methanococcus jannaschii (natural protein, UniProt P54048 1-102, looked up)
chain: MEYIYAALLLHSAGKEITEDAIKAVLSAAGVEVDDARVKALVAGLEGVDIEEAIANAAMPVAAAPAAAAPAAAAEEKKEEEKKEEKKEEDTAAVAGLAALFG
- stoichiometry N [2]: ~4 L12 per L10

B3: ribosomal protein L12 from Methanococcus thermolithotrophicus (natural protein, UniProt O52706 1-101, looked up)
chain: MEYIYASLLLHSAGKEITEDAVKAVLSAAGVEVEDARVKALVAALEGVDIEEAIEKAAMPVAAAAAPAAAPAEEPKEEKKEEKKEEDTTAAAAAGLGALFG
- stoichiometry N [3]: 4 L12 per L10
- stoichiometry N [4]: ~4 L12 per L10

B4: ribosomal protein L12 from Sulfolobus solfataricus (natural protein, UniProt P96040 1-106, looked up)
chain: MEYIYASLLLHSAKKEISEDALKNVLTAAGISVDEVRLKAVVAALKEVNIDEVLKNAAAMPVAVAAQPQATQAQPAAEEKKEEKKEEEKKGPSEEEIASGLASLFG
- stoichiometry N [5]: 4 L12 per L10
- stoichiometry N [6]: ~4 L12 per L10

B5: ribosomal protein L12 from Methanococcus vannielii (natural protein, UniProt P10623 1-99, looked up)
chain: MEYIYAALLLNSANKEVTEEAVKAVLVAGGIEANDARVKALVAALEGVDIAEAIAKAAIAPVAAAAPVAAAAAPAEVKKEEKKEDTTAAAAAGLGALFM
- stoichiometry N [7]: 4 L12 per L10
- stoichiometry N [8]: ~4 L12 per L10
